Laboratory results taken from patent publication US20230257479A1 (Genmab, published 2023).
Where a chain is given by its changes, count along the chain named. Numbers in names are those of the source.

Tests used:
[1] = target: T1, human 5T4ECDHis (mature protein of SEQ ID NO: 99) (human, UniProt Q13641 32-355); test: BLI, antibody on anti-human IgG Fc Capture biosensor, antigen in solution
T1 construct: ECD of human 5T4 (aa 1-355 of Uniprot Q13641) with C-terminal His tag; residues 1-31 are the signal peptide; also called ECD of human 5T4 with a C-terminal His tag
T1 sequence: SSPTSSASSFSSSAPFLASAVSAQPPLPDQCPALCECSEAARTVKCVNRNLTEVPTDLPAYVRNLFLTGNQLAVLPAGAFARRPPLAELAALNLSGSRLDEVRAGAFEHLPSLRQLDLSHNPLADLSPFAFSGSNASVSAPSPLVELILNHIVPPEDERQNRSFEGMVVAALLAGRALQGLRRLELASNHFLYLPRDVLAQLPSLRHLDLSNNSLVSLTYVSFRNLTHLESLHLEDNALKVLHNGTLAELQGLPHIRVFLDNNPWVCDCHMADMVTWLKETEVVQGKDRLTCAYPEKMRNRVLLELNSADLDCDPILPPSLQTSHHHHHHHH

[2] = target: T2, full length human 5T4 (SEQ ID NO: 1) on cells (human, UniProt Q13641 32-420); test: flow cytometry, HEK-293 cells transfected with human 5T4, PE secondary [II)D]
T2 construct: Uniprot Q13641; residues 1-31 are the signal peptide; Used both for transfected HEK-293 cells and for 5T4-expressing human tumor cell lines
T2 sequence: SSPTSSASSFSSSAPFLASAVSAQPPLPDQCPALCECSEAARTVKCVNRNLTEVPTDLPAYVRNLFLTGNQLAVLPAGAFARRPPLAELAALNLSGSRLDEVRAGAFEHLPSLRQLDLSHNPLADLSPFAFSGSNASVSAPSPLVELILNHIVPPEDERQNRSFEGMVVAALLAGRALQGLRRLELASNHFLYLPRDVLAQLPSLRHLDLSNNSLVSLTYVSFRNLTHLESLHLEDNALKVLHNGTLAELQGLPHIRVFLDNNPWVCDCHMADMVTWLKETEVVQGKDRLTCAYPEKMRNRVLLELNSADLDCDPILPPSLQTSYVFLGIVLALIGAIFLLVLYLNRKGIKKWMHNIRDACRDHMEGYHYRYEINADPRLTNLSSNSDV

[3] = target: T3, full length cynomolgus monkey 5T4 on transfected HEK-293 cells (cynomolgus monkey, UniProt Q4R8Y9 35-420); test: flow cytometry, HEK-293 cells transfected with cynomolgus monkey 5T4, PE secondary [II)D]
T3 construct: Uniprot Q4R8Y9; residues 1-34 are the signal peptide; also called cynomolgus 5T4
T3 sequence: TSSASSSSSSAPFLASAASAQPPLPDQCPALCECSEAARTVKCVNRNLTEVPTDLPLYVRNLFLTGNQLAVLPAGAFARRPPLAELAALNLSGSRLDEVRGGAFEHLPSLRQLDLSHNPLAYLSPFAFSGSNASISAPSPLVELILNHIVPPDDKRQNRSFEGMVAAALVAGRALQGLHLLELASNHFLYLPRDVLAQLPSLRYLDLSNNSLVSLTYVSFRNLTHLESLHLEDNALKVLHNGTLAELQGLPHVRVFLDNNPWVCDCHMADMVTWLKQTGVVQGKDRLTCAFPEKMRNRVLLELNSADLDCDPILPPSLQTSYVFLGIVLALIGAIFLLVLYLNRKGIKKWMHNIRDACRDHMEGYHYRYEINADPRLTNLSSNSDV

[4] = target: T1, human 5T4ECDHis (mature protein of SEQ …); test: BLI cross-block; competitor (immobilised): IgG1-5T4-106-FEAR
[5] = target: T1, human 5T4ECDHis (mature protein of SEQ …); test: BLI cross-block; competitor (immobilised): IgG1-5T4-207-FEAR
[6] = target: T1, human 5T4ECDHis (mature protein of SEQ …); test: BLI cross-block; competitor (immobilised): IgG1-5T4-085-FEAR
[7] = target: T1, human 5T4ECDHis (mature protein of SEQ …); test: BLI cross-block; competitor (immobilised): IgG1-5T4-076-FEAR
[8] = target: T1, human 5T4ECDHis (mature protein of SEQ …); test: BLI cross-block; competitor (immobilised): IgG1-5T4-226-FEAR
[9] = target: T1, human 5T4ECDHis (mature protein of SEQ …); test: BLI cross-block; competitor (immobilised): IgG1-5T4-H8-FEAR
[10] = target: T1, human 5T4ECDHis (mature protein of SEQ …); test: BLI cross-block; competitor (immobilised): IgG1-5T4-059-FEAR
[11] = target: T1, human 5T4ECDHis (mature protein of SEQ …); test: BLI cross-block; competitor (immobilised): IgG1-5T4-A1-F405L
[12] = target: T1, human 5T4ECDHis (mature protein of SEQ …); test: BLI cross-block; competitor (immobilised): IgG1-5T4-127-FEAR
[13] = target: T1, human 5T4ECDHis (mature protein of SEQ …); test: BLI cross-block; competitor (immobilised): IgG1-5T4-A3-F405L
[14] = target: T2, full length human 5T4 (SEQ ID NO: 1) on …; test: flow cytometry, HEK-293 cells transfected with human 5T4, PE secondary [II)F]
[15] = target: T3, full length cynomolgus monkey 5T4 on …; test: flow cytometry, HEK-293 cells transfected with cynomolgus monkey 5T4, PE secondary [II)F]
[16] = target: T2, full length human 5T4 (SEQ ID NO: 1) on …; test: flow cytometry, HeLa cells, PE secondary [II)A]
[17] = target: T2, full length human 5T4 (SEQ ID NO: 1) on …; test: flow cytometry, HeLa cells, FITC secondary [I)A]
[18] = target: T2, full length human 5T4 (SEQ ID NO: 1) on …; test: flow cytometry, OE33 cells, R-PE secondary
[19] = target: T2, full length human 5T4 (SEQ ID NO: 1) on …; test: flow cytometry, SK-GT-4 cells, R-PE secondary
[20] = target: T2, full length human 5T4 (SEQ ID NO: 1) on …; test: flow cytometry, SCC-9 cells, R-PE secondary
[21] = target: T2, full length human 5T4 (SEQ ID NO: 1) on …; test: flow cytometry, MDA-MB-231 cells, PE secondary [III)A]
[22] = target: T2, full length human 5T4 (SEQ ID NO: 1) on …; test: flow cytometry, FaDu cells, R-PE secondary
[23] = target: T2, full length human 5T4 (SEQ ID NO: 1) on …; test: flow cytometry, NCI-H292 cells, R-PE secondary
[24] = target: T3, full length cynomolgus monkey 5T4 on …; test: flow cytometry, HEK-293 cells transfected with cynomolgus monkey 5T4, PE secondary [II)A]
[25] = target: T3, full length cynomolgus monkey 5T4 on …; test: flow cytometry, HEK-293 cells transfected with cynomolgus monkey 5T4, FITC secondary [I)A]
[26] = target: T2, full length human 5T4 (SEQ ID NO: 1) on …; test: flow cytometry, HEK-293 cells transfected with human 5T4, PE secondary [II)A]
[27] = target: T2, full length human 5T4 (SEQ ID NO: 1) on …; test: flow cytometry, MDA-MB-231 cells, FITC secondary [I)A]
[28] = target: T2, full length human 5T4 (SEQ ID NO: 1) on …; test: flow cytometry, HEK-293 cells transfected with human 5T4, FITC secondary [I)D]
[29] = target: T3, full length cynomolgus monkey 5T4 on …; test: flow cytometry, HEK-293 cells transfected with cynomolgus monkey 5T4, FITC secondary [I)D]

B1: IgG1-5T4-106-FEAR (antibody, V domains shown)
VH: EVQLVQSGAEVKKPGESLKISCKGSGYRFTSYWIGWVRQMPGKGLEWMGIIYPGDSDARYSPSFQGQVTISADKSISTAYLQWSSLKASDTGMYYCARSVLFDYWGQGTLVTVSS
VL: AIQLTQSPSSLSASVGDRVTITCRASQGISSALAWYQQKPGKAPKLLIYDVSNLESGVPSRFSGSGSGTDFTLTISSLQPEDFATYYCQQFNSYPHTFGQGTKLEIK
notes: Monospecific, bivalent human IgG1 kappa with L234F, L235E, D265A, K409R (FEAR)
[1]
  Kd: 5.5 nM
  koff: 0.0012 s⁻¹
  kon: 210000 M⁻¹ s⁻¹
[2]
  EC50 (read off the curve): ~0.01 µg/mL
[3]
  binding result: binds
[4]
  corrected association response: -0.02 nm
[5]
  corrected association response: -0.01 nm
[6]
  corrected association response: -0.01 nm
[7]
  corrected association response: -0.02 nm
[8]
  corrected association response: -0.02 nm
[9]
  corrected association response: -0.01 nm
[10]
  corrected association response: 0.01 nm
[11]
  corrected association response: 0.85 nm
[12]
  corrected association response: -0.01 nm
[13]
  corrected association response: 0.57 nm

B2: bsIgG1-huCD3-H101G-FEALx5T4-085-FEAR (bispecific antibody)
heavy: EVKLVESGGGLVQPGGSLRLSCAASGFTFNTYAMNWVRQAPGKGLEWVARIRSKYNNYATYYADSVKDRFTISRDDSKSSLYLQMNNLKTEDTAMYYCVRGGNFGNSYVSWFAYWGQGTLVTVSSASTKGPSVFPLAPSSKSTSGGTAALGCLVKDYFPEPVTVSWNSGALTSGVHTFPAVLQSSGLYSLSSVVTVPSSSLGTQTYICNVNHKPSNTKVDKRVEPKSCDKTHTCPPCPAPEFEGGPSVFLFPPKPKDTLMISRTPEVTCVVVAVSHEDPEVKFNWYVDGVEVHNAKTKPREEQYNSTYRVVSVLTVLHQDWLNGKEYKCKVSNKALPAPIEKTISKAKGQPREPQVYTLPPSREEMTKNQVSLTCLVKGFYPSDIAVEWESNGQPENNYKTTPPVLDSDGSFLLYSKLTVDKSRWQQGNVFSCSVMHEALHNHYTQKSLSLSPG
light: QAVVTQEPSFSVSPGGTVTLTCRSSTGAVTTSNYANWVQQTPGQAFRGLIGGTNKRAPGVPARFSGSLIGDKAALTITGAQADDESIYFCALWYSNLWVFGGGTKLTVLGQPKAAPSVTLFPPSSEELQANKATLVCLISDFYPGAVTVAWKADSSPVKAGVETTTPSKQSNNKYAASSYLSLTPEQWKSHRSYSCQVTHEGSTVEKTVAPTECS
VH: EVQLLESGGGLVQPGGSLRLSCAASGFTFSSYAMSWVRQAPGKGLEWVSAISGSGGSTYNADSVKGRFTIFRDNSKNTLYLHMNSLRAEDTAVYYCARDPGYNNVEYLDHWGQGTLVTVSS
VL: B1 VL with V51A, N53S, H96L, Q100G, L104V
notes: Fab-arm exchange product
[14]
  EC50 (read off the curve): ~0.5 µg/mL
[15]
  EC50 (read off the curve): ~0.4 µg/mL

B3: bsIgG1-huCD3-H101G-FEALx5T4-207-FEAR (bispecific antibody)
heavy 1: not shown
light 1: not shown
heavy 2: QVQLQQWGAGLLKPSETLSLTCAVYGGSFSGYYWTWIRQPPGKGLEWIGEIDHSESTNYNPSLKSRVTISVDTSKNQFSLKLSSVTAADTAVYYCAGWFGELYHYYYGMDVWGQGTTVTVSSASTKGPSVFPLAPSSKSTSGGTAALGCLVKDYFPEPVTVSWNSGALTSGVHTFPAVLQSSGLYSLSSVVTVPSSSLGTQTYICNVNHKPSNTKVDKRVEPKSCDKTHTCPPCPAPEFEGGPSVFLFPPKPKDTLMISRTPEVTCVVVAVSHEDPEVKFNWYVDGVEVHNAKTKPREEQYNSTYRVVSVLTVLHQDWLNGKEYKCKVSNKALPAPIEKTISKAKGQPREPQVYTLPPSREEMTKNQVSLTCLVKGFYPSDIAVEWESNGQPENNYKTTPPVLDSDGSFFLYSRLTVDKSRWQQGNVFSCSVMHEALHNHYTQKSLSLSPG
light 2: not shown
notes: also called CD3x5T4 bispecific antibody
[16]
  EC50 (read off the curve): ~0.04 µg/mL
[17]
  EC50 (read off the curve): ~0.04 µg/mL
[18]
  EC50 (read off the curve): ~0.08 µg/mL
[19]
  EC50 (read off the curve): ~0.08 µg/mL
[20]
  EC50 (read off the curve): ~0.08 µg/mL
[21]
  EC50 (read off the curve): ~0.04 µg/mL
[22]
  EC50 (read off the curve): ~0.06 µg/mL
[23]
  EC50 (read off the curve): ~0.03 µg/mL
[24]
  EC50 (read off the curve): ~0.03 µg/mL
[25]
  EC50 (read off the curve): ~0.1 µg/mL
[26]
  EC50 (read off the curve): ~0.06 µg/mL
[27]
  EC50 (read off the curve): ~0.1 µg/mL

B4: bsIgG1-huCD3-H101G-FEALx5T4-H8-FEAR (bispecific antibody)
heavy: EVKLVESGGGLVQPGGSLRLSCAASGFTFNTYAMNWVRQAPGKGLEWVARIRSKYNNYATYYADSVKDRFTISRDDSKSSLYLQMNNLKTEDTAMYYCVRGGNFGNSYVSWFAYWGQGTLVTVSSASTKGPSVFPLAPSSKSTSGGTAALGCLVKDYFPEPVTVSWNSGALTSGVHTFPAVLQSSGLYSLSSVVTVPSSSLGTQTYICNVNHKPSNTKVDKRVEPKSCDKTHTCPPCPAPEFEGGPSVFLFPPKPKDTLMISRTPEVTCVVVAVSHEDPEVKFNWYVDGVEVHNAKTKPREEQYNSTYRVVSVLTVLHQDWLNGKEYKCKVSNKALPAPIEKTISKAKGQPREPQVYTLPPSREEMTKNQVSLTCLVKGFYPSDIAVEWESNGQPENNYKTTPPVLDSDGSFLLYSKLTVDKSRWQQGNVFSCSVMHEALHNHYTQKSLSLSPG
light: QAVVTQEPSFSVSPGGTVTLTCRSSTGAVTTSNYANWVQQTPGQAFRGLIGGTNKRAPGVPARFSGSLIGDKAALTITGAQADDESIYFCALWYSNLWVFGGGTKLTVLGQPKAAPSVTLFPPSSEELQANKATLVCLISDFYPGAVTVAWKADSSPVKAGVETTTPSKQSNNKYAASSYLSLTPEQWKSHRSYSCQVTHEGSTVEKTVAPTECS
VH: EVQLQQSGPDLVKPGASVKISCKASGYSFTGYYMHWVKQSHGKSLEWIGRINPNNGVTLYNQKFKDKAILTVDKSSTTAYMELRSLTSEDSAVYYCARSTMITNYVMDYWGQVTSVTVSS
VL: SIVMTQTPTFLLVSAGDRVTITCKASQSVSNDVAWYQQKPGQSPTLLISYTSSRYAGVPDRFIGSGYGTDFTFTISTLQAEDLAVYFCQQDYNSPPTFGGGTKLEIK
notes: Fab-arm exchange product
[28]
  binding result: binds
[29]
  EC50 (read off the curve): ~0.1 µg/mL
